Test results taken from patent US20260055369A1, “METHOD FOR GENERATING CELLS OF THE T CELL LINEAGE WITH ENGINEERING BROADLY REACTIVE HUMAN NOTCH LIGAND” (H. Lee Moffitt Cancer Center and Research Institute, Inc., priority 2022, published 2026).

Assays:
[1] = tested on: Notch2; assay: Notch activation in co-culture format with HEK293T (U2OS luciferase reporter); format: cell-based, human; conditions: HEK293T expressing full-length ligand, 1:1 ratio; P=0.037
Protocol: (§1) On day one, U2OS reporter cells (signal receiver cells) were detached with trypsin-EDTA, washed with DPBS, and 5×10^5 cells were added to 6-well plates (Falcon) for transfection with luciferase reporter vectors. On day two, U2OS cells were transfected as described above. On day three, signal receiver cells were detached with trypsin-EDTA, and 100 μL of DMEM media containing 20,000 cells were added to tissue culture 96-well plates (Coastar). In parallel, HEK293T-expressing WT DLL4 or Delta^MAX were detached with trypsin-EDTA, counted manually, and dilutions prepared such that 100 μL of DMEM containing 20,000 signal sender cells were added over signal receiver cells (cell ratio 1:1). Doxycycline (Sigma) at 2 μg/mL was used to induce Notch-Gal4 expression. On day four, luciferase firefly and Renilla signals were determined with Dual-Glo luciferase assay system (Promega) using a GloMax luminometer (Promega). A luminescence ratio firefly:Renilla was determined for every well and normalized to the signal of a well containing U2OS reporter cells and HEK293T non-expressing DLL4 ligands. Notch activation is represented as the mean fold-change over the control±s.d. of three independent biological replicates.

[2] = tested on: Notch1; assay: as above; format: cell-based, human; conditions: HEK293T expressing full-length ligand, 1:1 ratio
Chain of Notch1 (P46531 19-1664 limits assumed): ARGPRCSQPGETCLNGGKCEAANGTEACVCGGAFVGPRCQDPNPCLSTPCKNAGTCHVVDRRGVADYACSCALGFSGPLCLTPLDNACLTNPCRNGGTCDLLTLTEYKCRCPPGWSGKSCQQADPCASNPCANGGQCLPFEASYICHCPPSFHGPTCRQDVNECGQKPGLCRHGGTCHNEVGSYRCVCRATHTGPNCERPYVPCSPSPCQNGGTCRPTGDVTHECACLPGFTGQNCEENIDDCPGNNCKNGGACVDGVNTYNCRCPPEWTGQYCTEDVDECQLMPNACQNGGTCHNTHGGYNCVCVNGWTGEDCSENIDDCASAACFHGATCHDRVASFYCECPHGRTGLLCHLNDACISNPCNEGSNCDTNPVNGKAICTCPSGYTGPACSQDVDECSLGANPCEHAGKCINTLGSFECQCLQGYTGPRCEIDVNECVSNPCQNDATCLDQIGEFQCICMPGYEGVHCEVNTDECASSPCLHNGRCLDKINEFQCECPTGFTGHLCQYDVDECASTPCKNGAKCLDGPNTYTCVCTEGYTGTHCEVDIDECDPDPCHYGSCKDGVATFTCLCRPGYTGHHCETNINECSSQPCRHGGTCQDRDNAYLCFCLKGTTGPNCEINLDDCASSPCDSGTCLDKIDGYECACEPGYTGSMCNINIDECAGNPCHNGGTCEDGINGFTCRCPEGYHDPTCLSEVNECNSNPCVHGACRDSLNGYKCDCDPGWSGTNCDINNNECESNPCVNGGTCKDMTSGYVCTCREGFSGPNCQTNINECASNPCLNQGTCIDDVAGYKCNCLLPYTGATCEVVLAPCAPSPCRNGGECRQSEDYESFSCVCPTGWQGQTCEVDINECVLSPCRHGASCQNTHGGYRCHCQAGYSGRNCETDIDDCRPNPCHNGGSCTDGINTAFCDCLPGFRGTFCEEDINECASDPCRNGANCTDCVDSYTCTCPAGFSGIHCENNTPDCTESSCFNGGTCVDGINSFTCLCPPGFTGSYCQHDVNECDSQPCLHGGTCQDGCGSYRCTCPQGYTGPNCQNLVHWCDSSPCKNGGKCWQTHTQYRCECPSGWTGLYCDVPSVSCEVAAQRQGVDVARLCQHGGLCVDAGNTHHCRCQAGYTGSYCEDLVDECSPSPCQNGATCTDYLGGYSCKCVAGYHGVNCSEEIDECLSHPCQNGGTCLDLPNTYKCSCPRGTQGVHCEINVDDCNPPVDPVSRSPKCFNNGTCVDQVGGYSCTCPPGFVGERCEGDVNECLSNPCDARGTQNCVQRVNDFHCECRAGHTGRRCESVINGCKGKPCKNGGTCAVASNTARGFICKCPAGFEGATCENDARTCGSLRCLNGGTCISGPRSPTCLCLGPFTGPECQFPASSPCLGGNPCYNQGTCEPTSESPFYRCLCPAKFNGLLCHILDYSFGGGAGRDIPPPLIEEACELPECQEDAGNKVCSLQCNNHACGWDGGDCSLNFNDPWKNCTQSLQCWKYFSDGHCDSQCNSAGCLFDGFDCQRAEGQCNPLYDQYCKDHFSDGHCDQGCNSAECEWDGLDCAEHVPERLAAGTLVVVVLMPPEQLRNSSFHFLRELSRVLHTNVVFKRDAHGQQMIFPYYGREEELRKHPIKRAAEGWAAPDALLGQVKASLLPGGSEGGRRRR
Chain of Notch1 (P46531 1665-1756 limits assumed): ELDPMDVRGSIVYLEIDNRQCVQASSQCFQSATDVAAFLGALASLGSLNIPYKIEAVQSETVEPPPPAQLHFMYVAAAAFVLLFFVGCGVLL
Protocol: as §1

[3] = tested on: Notch3; assay: as above; format: cell-based, human; conditions: HEK293T expressing full-length ligand, 1:1 ratio
Chain of Notch3 (Q9UM47 197-505 limits assumed): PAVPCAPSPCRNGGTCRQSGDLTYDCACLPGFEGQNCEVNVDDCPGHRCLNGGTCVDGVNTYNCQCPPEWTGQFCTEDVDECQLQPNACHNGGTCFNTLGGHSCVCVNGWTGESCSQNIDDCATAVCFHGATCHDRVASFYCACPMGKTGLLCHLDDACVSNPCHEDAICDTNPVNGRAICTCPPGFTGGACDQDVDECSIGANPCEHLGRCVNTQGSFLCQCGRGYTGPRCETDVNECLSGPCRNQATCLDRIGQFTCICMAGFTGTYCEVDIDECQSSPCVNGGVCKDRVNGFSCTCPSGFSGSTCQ
Protocol: as §1

[4] = biological target: T1, Notch1 (Homo sapiens, UniProt P46531); assay: Immunoblot of cleaved Notch1 in CD8+ T cells; format: cell-based; conditions: CD8+ T cells after 96 hours with K32 cells
T1 construct: endogenous in cells; host or cells: primary human CD8+ T cells from PBMC
T1 sequence (P46531 19-2555): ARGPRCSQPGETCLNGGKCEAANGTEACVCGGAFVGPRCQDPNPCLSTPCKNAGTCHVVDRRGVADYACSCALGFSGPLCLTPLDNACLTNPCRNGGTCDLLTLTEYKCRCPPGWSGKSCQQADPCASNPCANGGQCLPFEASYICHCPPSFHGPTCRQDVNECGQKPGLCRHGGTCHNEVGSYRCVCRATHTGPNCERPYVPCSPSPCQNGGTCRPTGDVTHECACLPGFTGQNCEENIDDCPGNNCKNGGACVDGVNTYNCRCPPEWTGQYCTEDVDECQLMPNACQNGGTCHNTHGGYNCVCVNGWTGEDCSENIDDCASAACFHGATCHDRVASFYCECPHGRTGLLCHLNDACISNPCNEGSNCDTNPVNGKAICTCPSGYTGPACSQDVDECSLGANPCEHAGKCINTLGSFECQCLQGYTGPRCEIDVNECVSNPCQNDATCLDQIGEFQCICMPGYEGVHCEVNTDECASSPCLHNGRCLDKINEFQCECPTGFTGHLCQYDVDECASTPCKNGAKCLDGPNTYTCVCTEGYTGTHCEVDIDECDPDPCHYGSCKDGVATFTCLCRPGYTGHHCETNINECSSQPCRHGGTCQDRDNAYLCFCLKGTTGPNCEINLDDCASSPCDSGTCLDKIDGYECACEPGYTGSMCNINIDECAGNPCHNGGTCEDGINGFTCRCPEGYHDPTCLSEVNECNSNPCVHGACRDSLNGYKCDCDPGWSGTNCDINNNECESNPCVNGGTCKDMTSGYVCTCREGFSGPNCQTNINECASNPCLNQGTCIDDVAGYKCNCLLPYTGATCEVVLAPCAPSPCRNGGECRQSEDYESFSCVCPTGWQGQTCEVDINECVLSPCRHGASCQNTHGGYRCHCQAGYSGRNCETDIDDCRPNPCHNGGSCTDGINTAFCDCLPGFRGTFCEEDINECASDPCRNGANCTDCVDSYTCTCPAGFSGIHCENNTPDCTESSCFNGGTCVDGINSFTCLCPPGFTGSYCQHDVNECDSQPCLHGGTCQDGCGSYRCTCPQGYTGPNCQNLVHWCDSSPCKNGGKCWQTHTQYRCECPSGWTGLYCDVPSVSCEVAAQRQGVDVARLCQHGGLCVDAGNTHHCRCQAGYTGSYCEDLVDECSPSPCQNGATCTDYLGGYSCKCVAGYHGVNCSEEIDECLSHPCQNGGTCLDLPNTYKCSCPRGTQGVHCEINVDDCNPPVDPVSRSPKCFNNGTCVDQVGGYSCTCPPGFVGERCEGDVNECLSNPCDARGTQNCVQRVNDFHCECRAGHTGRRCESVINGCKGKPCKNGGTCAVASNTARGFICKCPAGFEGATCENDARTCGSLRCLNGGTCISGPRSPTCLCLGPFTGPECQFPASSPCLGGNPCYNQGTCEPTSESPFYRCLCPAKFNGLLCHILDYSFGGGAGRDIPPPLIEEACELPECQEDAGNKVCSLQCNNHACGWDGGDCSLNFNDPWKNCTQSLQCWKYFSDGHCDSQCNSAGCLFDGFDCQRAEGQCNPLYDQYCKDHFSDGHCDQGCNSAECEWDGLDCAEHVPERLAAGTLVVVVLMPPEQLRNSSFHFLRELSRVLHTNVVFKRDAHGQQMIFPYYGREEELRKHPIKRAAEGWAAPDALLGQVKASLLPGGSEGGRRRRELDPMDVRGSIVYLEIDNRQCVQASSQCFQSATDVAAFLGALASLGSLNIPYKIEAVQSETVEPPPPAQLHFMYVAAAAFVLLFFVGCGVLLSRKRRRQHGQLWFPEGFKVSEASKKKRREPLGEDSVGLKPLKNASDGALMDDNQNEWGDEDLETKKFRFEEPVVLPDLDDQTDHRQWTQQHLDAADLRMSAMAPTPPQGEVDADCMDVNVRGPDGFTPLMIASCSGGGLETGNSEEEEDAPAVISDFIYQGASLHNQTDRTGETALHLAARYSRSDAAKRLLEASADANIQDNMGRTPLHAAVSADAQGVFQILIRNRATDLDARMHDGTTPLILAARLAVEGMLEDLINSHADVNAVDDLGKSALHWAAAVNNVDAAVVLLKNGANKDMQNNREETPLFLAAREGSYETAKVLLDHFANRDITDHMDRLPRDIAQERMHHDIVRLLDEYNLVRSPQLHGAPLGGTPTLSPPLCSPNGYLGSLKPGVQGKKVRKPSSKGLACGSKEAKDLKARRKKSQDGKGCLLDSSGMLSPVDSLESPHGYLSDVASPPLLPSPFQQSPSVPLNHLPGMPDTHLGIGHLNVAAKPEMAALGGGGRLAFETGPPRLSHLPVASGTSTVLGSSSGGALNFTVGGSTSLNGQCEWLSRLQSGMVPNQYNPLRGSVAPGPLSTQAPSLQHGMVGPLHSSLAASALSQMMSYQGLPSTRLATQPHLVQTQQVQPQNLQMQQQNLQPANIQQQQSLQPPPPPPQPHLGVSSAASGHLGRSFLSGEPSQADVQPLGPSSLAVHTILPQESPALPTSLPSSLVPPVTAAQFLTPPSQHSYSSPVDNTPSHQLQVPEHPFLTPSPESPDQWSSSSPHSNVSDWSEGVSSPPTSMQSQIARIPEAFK
Description: For detection of Notch activation in CD8^+ T cells, following co-culture with K32 cell lines, CD8^+ T cells were positively enriched by Magnisort Human CD8^+ T cell positive selection Kit (Invitrogen). Nuclear fraction was isolated using NE-PER Nuclear and Cytoplasmic extraction kit (ThermoFisher). Equal protein amounts of nuclear cell lysates were run on 4-20% gradient Tris-glycine gels (Novex-Invitrogen), transferred to PVDF membranes using an iBlot Gel Transfer Device (ThermoFisher), and immunoblotted with antibodies anti-cleaved Notch1 (Val1744 rabbit mAb, Cell Signaling Technology, 1:1,000), anti-Notch2 (D76A6 rabbit mAb, Cell Signaling Technology, 1:1,000), and anti-β Actin (mouse mAb, Sigma, 1:20,000). Secondary antibodies anti-IgG (anti-rabbit or anti-mouse, GE Healthcare, 1:5,000) conjugated to horseradish peroxidase (HRP) were used for detection of proteins using ECL Western Blot Substrate Reagent (Thermo Fisher Scientific). Images were acquired using a Chemidoc Imaging System and analyzed with Image-Lab software (Bio-Rad).

[5] = tested on: hNotch1; assay: Notch signaling assay using multiple ligand-presentation formats (U2OS hNotch1-Gal4 luciferase); format: cell-based, human
Chain of hNotch1 (P46531 19-1664 limits assumed): as the sequence (P46531 19-1664 limits assumed) above
Chain of hNotch1 (P46531 1665-1756 limits assumed): as the sequence (P46531 1665-1756 limits assumed) above
Protocol: Notch activation was assayed in different formats (FIG. 14A) including (1) non-specific orientation (0.1 ng/mm^2 of Delta^MAX on well, FIG. 3A), (2) ligand-oriented coupling (10 nM of Delta^MAX on well, FIG. 3B), (3) magnetic beads coated with biotinylated Delta^MAX (ratio 1:20 reporter cells:beads, optimization of ratio is detailed in FIG. 14D), (4) HEK293T-expressing Delta^MAX (ratio 1:1, signal receivers:senders, optimization of ratio can be seen in FIG. 14C), and (5) yeast-expressing Delta^MAX (ratio 1:10, reporter:yeast, optimization of ratio is detailed in FIG. 14B). On day one, U2OS hNotch1-Gal4 cells were detached with trypsin-EDTA, counted in the microscope, and 5×10E5 cells/well transferred to 6-well tissue culture plates (Falcon). On day two, U2OS cells were transfected as described above. On day three, the different activation assays were set up at the same time. For ligand oriented-coupling, streptavidin plates were coated with 10 nM of Delta^MAX as described above. For non-specific adsorption, non-biotinylated Delta^MAX at 0.1 ng/mm was coated as described previously. For activation using streptavidin beads coated with biotinylated Delta^MAX, 200 mg of streptavidin beads (streptavidin MagneSphere paramagnetic particles, Promega) were washed 3 times with 200 μL of DPBS+0.1% BSA using a magnet (Miltenyi), and combined with 20 μg of biotinylated Delta^MAX for 1.5 hours at 4° C. Next, unbound Delta^MAX was washed out three times with 200 μL of DPBS+0.1% BSA, and 100 μL of complexed beads (pre-diluted 1/25 in DPBS) were added to wells. For co-culture activation with HEK293T-expressing Delta^MAX, cells were detached with trypsin-EDTA, quenched with DMEM media, washed with DPBS, and 100 μL containing 20,000 cells in DMEM were added to wells. For activation with yeast cells expressing Delta^MAX on surface, pYAL vector encoding for Delta^MAX (N-EGF5) was electroporated previously into yeast cells, and DLL4 expressed in SGCAA as previously described. Delta^MAX expression was induced 48 hours before Notch activation assay set up. One hundred microliters of yeast cells (2×10E6 cells/mL) in serum-free DMEM were added to the assay plate. Once all the wells contained the desired activation assays, U2OS reporter cells were detached with trypsin-EDTA, and 20,000 cells in 100 μL of DMEM were added per well. All the conditions were supplemented with 2 μg/mL of doxycycline to induce Notch1-Gal4 expression. The assay plate was incubated for 24 hours at 37° C. and 5% CO2. On day four, media was aspirated off and Luciferase Dual-Glo kit (Promega) used to detect firefly and Renilla signals in a luminometer (GloMax, Promega). Negative controls were BSA 0.5% for non-specific adsorption, streptavidin and BSA 2% for ligand oriented-coupling, uncoated streptavidin beads for activation with magnetic beads, HEK293T non-expressing DLL4 for co-culture activation, and yeast expressing PDL-1 ECD for co-culture with yeast. The expression of Delta^MAX in HEK293T and yeast cells was confirmed by flow cytometry (BD Accuri C6 plus) following staining for 1 hour at 4° C. with anti-hDLL4 PE antibody using DPBS+0.5% BSA, and selection buffer, respectively (FIG. 14E). Notch activation is represented as the mean fold-change over the corresponding control±s.d. of three independent biological replicates.

Chain of Notch2 (Q04721 221-530 limits assumed): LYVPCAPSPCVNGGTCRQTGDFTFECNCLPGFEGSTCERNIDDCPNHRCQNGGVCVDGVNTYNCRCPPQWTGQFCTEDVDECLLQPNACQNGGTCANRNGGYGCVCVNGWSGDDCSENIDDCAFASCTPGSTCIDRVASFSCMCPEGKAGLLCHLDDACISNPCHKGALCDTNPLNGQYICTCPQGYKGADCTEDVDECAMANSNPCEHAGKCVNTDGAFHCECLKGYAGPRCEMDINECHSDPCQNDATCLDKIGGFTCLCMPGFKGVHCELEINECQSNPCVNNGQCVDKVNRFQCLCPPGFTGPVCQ

B1: Delta^MAX: engineered human DLL4 consensus variant with 10 mutations combining DLL4.v1 and DLL4.v2 mutations; sequence matches SEQ ID NO: 4/10 (protein)
chain: SSVFQLQLQEFINERGVLASGRPCEPGCRTFFRVCLKHFQAVVSPGPCTFGTVSTPVLGTNSFAVRDDSSGGGRNPLQLPLNFTWPGTFSLIIEAWHAPGDDLRPEALPPDALISKFAIQGSLAVGQNWLLDEQTSTLTRLRYSYRVICSDNYYGDNCSRLCKKRNDYFGHYVCQPDGNPSCLPGWTGEYCQQPICLSGCHEQNGYCSKPAECLCRPGWQGRLCNECIPHPGCRHGTCSTPWQCLCDEGWGGLYCDQDLNYCTHHSPCKNGATCRNSGPRSYTCTCRPGYTGVDCELELSECDSNPCRNGGSCKDQEDGYHCLCPPGYYGLHCEHSTLSCADSPCFNGGSCRERNQGANYACECPPNFTGSNCE
Notch2 activation compared to unstimulated cells [1]: significant level of Notch2 activation
Emax of signaling vs WT DLL4 [2]: ~2 fold
Emax of signaling vs WT DLL4 [3]: ~2 fold
Notch1 activation (cleaved ICD) relative to WT DLL4 [4]: increased
increase in Notch1 activation relative to controls ([5]; co-culture with HEK293T expressing ligand, ratio 1:1): 15 fold
increase in Notch1 activation relative to controls ([5]; ligand-coated streptavidin magnetic beads, ratio 1:20 reporter cells:beads): 21 fold
increase in Notch1 activation relative to controls ([5]; non-specific adsorption, 0.1 ng/mm^2): 23 fold
increase in Notch1 activation relative to controls ([5]; oriented coupling on streptavidin plates, 10 nM): 50 fold
Notch1 activation relative to controls ([5]; yeast-displayed, ratio 1:10 reporter:yeast): did not induce a significant change
